Results as given in the supplement of paper PMC10724198.
± gives the standard deviation of the averaged measurements.

Tested on: Saccharomyces cerevisiae
Assay: protein stability index of tFT-peptide fusion (C-terminal peptide) (PSI (0-1 scale)); higher = more stable (slower turnover)
Conditions: temperature: 30 C
Experimental: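 MPS profiling in S. cerevisiae of the yeast C-terminome library: the last 12 aa of each annotated ORF are fused to the C-terminus of a sfGFP-mCherry timer, after a GGGS linker. Cells are FACS-sorted into 8 mCherry/sfGFP bins and deep-sequenced. PSI runs from 0 (unstable) to 1 (stable); wild type and das1Δ backgrounds, two technical replicates each.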

[1] = genetic background: das1 deletion

Row | Sequence | protein stability index [1] | protein stability index (genetic background: wild type)
1 | GSSLITEGVYVI [NSE1 C-terminal 12 aa] | 0.686 ± 0.021 | 0.683 ± 0.028
2 | ESEYREQQQNPQ [SHQ1 C-terminal 12 aa] | 0.688 ± 0.017 | 0.686 ± 0.085
3 | YKDVQDAIRDSL [URA6 C-terminal 12 aa] | 0.708 ± 0.012 | 0.6855 ± 0.0037
4 | ILNCVGSAKTSG [YBR298C-A C-terminal 12 aa] | 0.68417 ± 0.00062 | 0.666 ± 0.019
5 | DKAAPALKKVKM [SFL1 C-terminal 12 aa] | 0.675 ± 0.026 | 0.71 ± 0.041
6 | ASVIPGGCLGNL [ZPS1 C-terminal 12 aa] | 0.703 ± 0.018 | 0.685 ± 0.018
7 | LLLSAFLRNLVP [YAL016C-A C-terminal 12 aa] | 0.685 ± 0.026 | 0.375 ± 0.0073
8 | NVKSSTQEKDSK [SGN1 C-terminal 12 aa] | 0.706 ± 0.014 | 0.721 ± 0.053
9 | DQAKDASPNAKK [RGM1 C-terminal 12 aa] | 0.694 ± 0.0073 | 0.673 ± 0.011
10 | KIEHVDDETRTH [PEX13 C-terminal 12 aa] | 0.6991 ± 0.0032 | 0.6991 ± 0.0042
11 | NGRYVDTDFDSM [LCB5 C-terminal 12 aa] | 0.707 ± 0.02 | 0.659 ± 0.013
12 | PLSKMEDQVFVF [CBR1 C-terminal 12 aa] | 0.663 ± 0.036 | 0.657 ± 0.027
13 | LTEMSAKISFED [AAD10 C-terminal 12 aa] | 0.717 ± 0.019 | 0.779 ± 0.011
14 | EPYNIKYSNSKK [MSD1 C-terminal 12 aa] | 0.7 ± 0.03 | 0.66695 ± 2.1e-06
15 | SWETKLKQNILE [CSN9 C-terminal 12 aa] | 0.7156 ± 0.0054 | 0.6441 ± 0.0042
16 | KRLGKKTVVTSR [DCC1 C-terminal 12 aa] | 0.701 ± 0.011 | 0.717 ± 0.055
17 | KSARSWVRSGRL [YPR053C C-terminal 12 aa] | 0.80266 ± 0.00042 | 0.77 ± 0.013
18 | DEWRAKYGGQQV [MES1 C-terminal 12 aa] | 0.675 ± 0.037 | 0.676 ± 0.029
19 | DFENKLKKKKRK [TMA64 C-terminal 12 aa] | 0.7268 ± 0.0047 | 0.715 ± 0.018
20 | SGKLASKKRDKK [MRPL36 C-terminal 12 aa] | 0.684 ± 0.021 | 0.651 ± 0.019
21 | LVKPKNWKKFRE [KRE2 C-terminal 12 aa] | 0.686 ± 0.017 | 0.733 ± 0.022

Row | Sequence | protein stability index [1] | protein stability index (genetic background: wild type)
22 | MTSLDICALGIK [RVS161 C-terminal 12 aa] | 0.689 ± 0.012 | 0.675 ± 0.046
23 | WERTMRDLKLIH [ALG1 C-terminal 12 aa] | 0.742 ± 0.027 | 0.64 ± 0.033
24 | MFLSIQPQEARP [KAP120 C-terminal 12 aa] | 0.72 ± 0.0086 | 0.713 ± 0.011
25 | KNFYNRHTSPQL [YHL008C C-terminal 12 aa] | 0.737 ± 0.03 | 0.679 ± 0.02
26 | LQEPDRDNDDSG [NTC20 C-terminal 12 aa] | 0.701 ± 0.013 | 0.7 ± 0.017
27 | IDTWEIKFNELF [YLR287C C-terminal 12 aa] | 0.732 ± 0.042 | 0.6954 ± 0.0012
28 | SKKSKKSKKSEE [MRH1 C-terminal 12 aa] | 0.719 ± 0.0089 | 0.695 ± 0.053
29 | NNTFLDVQAKSN [IMP1 C-terminal 12 aa] | 0.6944 ± 0.0068 | 0.712 ± 0.026
30 | SAEGSDVLYMQK [LSM7 C-terminal 12 aa] | 0.671 ± 0.0093 | 0.6739 ± 0.0053
31 | KQIVFEIPSETH [RPS7A C-terminal 12 aa] | 0.701 ± 0.013 | 0.6789 ± 0.0028
32 | ECPGGCPGVAFI [RTC1 C-terminal 12 aa] | 0.7077 ± 0.0053 | 0.685 ± 0.024
33 | VQEWEVLGRVDV [CPD1 C-terminal 12 aa] | 0.724 ± 0.014 | 0.692 ± 0.022
34 | NSAFSSASVTKP [YFR057W C-terminal 12 aa] | 0.711 ± 0.0094 | 0.682 ± 0.023
35 | QLAIALSLSEIN [UFO1 C-terminal 12 aa] | 0.694 ± 0.011 | 0.714 ± 0.035
36 | VVERTRQAHFAI [YEF1 C-terminal 12 aa] | 0.676 ± 0.023 | 0.6752 ± 0.0036
37 | VHLEKKKDEDKK [UBX7 C-terminal 12 aa] | 0.67376 ± 4e-05 | 0.668 ± 0.021
38 | KNLWHHKINNLN [RAM2 C-terminal 12 aa] | 0.699 ± 0.017 | 0.166 ± 0.021
39 | FVSHSRFFNRGT [VPS53 C-terminal 12 aa] | 0.684 ± 0.03 | 0.6958 ± 0.0033
40 | PRLKAKKKVTKP [TFB4 C-terminal 12 aa] | 0.6873 ± 0.003 | 0.67 ± 0.012
41 | TFCVYENLKHRL [FLX1 C-terminal 12 aa] | 0.741 ± 0.019 | 0.726 ± 0.017
42 | EGKEEIIYDSEG [RAD55 C-terminal 12 aa] | 0.6913 ± 0.006 | 0.677 ± 0.047

Row | Sequence | protein stability index [1] | protein stability index (genetic background: wild type)
43 | IIGIYYVLKWLR [BOS1 C-terminal 12 aa] | 0.3507 ± 0.0021 | 0.392 ± 0.0089
44 | DLLDMIDSLGKL [FSH3 C-terminal 12 aa] | 0.688 ± 0.023 | 0.694 ± 0.056
45 | THFFSIEWAGFG [SEN34 C-terminal 12 aa] | 0.7116 ± 0.0045 | 0.725 ± 0.041
46 | KKQESDNDANSK [CMC2 C-terminal 12 aa] | 0.703 ± 0.014 | 0.6755 ± 0.0052
47 | FEGKPLYQMLKI [YAL047W-A C-terminal 12 aa] | 0.638 ± 0.031 | 0.551 ± 0.011
48 | YYYYNKYKEFYP [TMH11 C-terminal 12 aa] | 0.736 ± 0.039 | 0.704 ± 0.029
49 | SSSNKSQRNGRY [AIR1 C-terminal 12 aa] | 0.712 ± 0.011 | 0.68967 ± 0.00054
50 | DEMQDFLKKHAS [SWI6 C-terminal 12 aa] | 0.7311 ± 0.0031 | 0.643 ± 0.033
51 | SPPLSTSPDSRR [YLR416C C-terminal 12 aa] | 0.7198 ± 0.0012 | 0.713 ± 0.029
52 | PQFKYRADFLII [APE3 C-terminal 12 aa] | 0.664 ± 0.011 | 0.676 ± 0.037
53 | RTNHIYNYENSD [DFG16 C-terminal 12 aa] | 0.703 ± 0.0077 | 0.672 ± 0.011
54 | LRFEEMNSDLVQ [ROG1 C-terminal 12 aa] | 0.705 ± 0.0096 | 0.747 ± 0.12
55 | LITMIRFVNSQK [DCG1 C-terminal 12 aa] | 0.677 ± 0.044 | 0.673 ± 0.034
56 | HNVCGRAFSLPL [HSL7 C-terminal 12 aa] | 0.7123 ± 0.0037 | 0.677 ± 0.035
57 | NLEATNNKKPPL [DAD4 C-terminal 12 aa] | 0.6963 ± 0.0043 | 0.6968 ± 0.00081
58 | DDIANNQSICCV [YPT11 C-terminal 12 aa] | 0.649 ± 0.02 | 0.649 ± 0.018
59 | DYSFVNTFRDYE [HAL9 C-terminal 12 aa] | 0.697 ± 0.022 | 0.736 ± 0.053
60 | KDLFASIGKKKL [FYV8 C-terminal 12 aa] | 0.714 ± 0.011 | 0.682 ± 0.026
61 | NSALSSTSTLAI [RIB1 C-terminal 12 aa] | 0.6419 ± 0.0051 | 0.64 ± 0.04
